Measured values from PMC11839890 (European Journal of Nuclear Medicine and Molecular Imaging, 2024).
Like-named read-outs stand apart in the source and are kept apart here. Non-standard residues stand in square brackets, D forms with d. *: point of attachment. DOTA = O=C(O)CN1CCN(CC(=O)O)CCN(CC(=O)*)CCN(CC(=O)O)CC1

What was measured:
[1] = set-up: method as in PMID 34208516; conditions: established for humans from the rat study; cited from earlier work
[2] = Extended single-dose toxicity study in Wistar rats; conditions: male, rat, in vivo, intravenous, for humans
Experimental: The first clinical dose for the therapeutic application was established based on a previous extended singe-dose toxicity study performed on the chemical precursor DOTA-MGS5 in a GLP-compliant laboratory (BSL BIOSERVICE Scientific Laboratories Munich GmbH, Planegg/Munich, Germany). According to applicable guidelines a targeted programme of non-clinical testing was followed. The safety was assessed in a single species and no repeated dose study was performed, as complete clearance between administrations is expected. The study was conducted in male Wister rats and included three dose groups and one control group. The histopathological examination was focused on the main target organs.

A431-CCK2R xenografts [3] = test: Biodistribution up to 7 days p.i. / preclinical pharmacokinetics in A431-CCK2R xenografted BALB/c nude mice; format: in vivo; conditions: mouse, in vivo
Experimental: (§1) The study was approved by the Dutch animal ethics committee (CCD) of the Radboud University and the Nijmegen Medical Centre animal ethics committee (RUDEC) (2020–0007–020). Mice were inoculated with A431-CCK2R cells (2 × 10^6 in 200 μL DMEM medium) at an age of 8–10 weeks. […] Samples were collected, weighted and measured in a gamma counter together with a 1% standard of the injected dose. Results were expressed as percentage of injected activity per gram of tissue (%IA/g), and tumour-to-organ activity ratios were calculated for selected organs. The biodistribution data were used to calculate the kinetics in mouse organs and A431-CCK2R xenografts. A detailed description of the dosimetry calculations and extrapolation from mice to humans can be found in the Supplementary Materials. A one-compartment distribution model was used to characterize the time-activity curves, which were fitted with a single-exponential function implementing Graphpad Prism software. […] Animal dosimetry was performed using the RADAR mouse phantom. The mouse phantom organ weights were used to translate the time-integrated activity concentration coefficients [TIAC] into the regular TIAC. The absorbed dose per given activity was calculated using the MIRD equation (medical internal radiation dose) and the S values obtained from the 25 g RADAR mouse phantom.

[4] = as above; format: in vivo; conditions: female, mouse, iv, total radioactivity
Experimental: as §1

in vivo = conditions: mouse; for tissue uptake at 4 h: BALB/c nude (athymic), total radioactivity, uptake in A431-CCK2R xenografts
Experimental: Biodistribution studies were performed in female athymic BALB/c nude mice (Charles River Laboratories, Sulzfeld, Germany) with A431-CCK2R xenografts induced and animals treated as described previously. The study was approved by the Austrian Ministry of Science (2022–0.351.553). […] Statistical analysis was performed on the data sets using the unpaired two-tailed t-test with a significance level of 0.05.

human CCK2R = molecular target: T1, human CCK2R (Homo sapiens, UniProt P32239); test: Saturation binding on A431-CCK2R cells; conditions: 4°C, read-out: dissociation constant (Kd)
T1 construct: expressed in transfected cells; host or cells: A431 human epidermoid carcinoma cells, stably transfected (plasmid pCR3.1), provided by Dr. Luigi Aloj
T1 sequence (P32239 1-447): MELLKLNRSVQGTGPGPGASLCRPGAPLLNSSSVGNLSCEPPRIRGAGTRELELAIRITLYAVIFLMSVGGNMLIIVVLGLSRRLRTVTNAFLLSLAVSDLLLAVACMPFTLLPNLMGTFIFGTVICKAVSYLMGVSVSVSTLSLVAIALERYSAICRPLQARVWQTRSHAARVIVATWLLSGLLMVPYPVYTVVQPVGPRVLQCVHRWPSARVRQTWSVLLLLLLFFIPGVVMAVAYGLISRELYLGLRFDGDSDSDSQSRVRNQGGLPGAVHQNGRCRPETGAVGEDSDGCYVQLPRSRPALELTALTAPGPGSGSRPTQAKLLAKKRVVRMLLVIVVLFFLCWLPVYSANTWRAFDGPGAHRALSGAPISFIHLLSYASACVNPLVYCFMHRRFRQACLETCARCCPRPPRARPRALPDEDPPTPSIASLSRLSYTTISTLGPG
Experimental: The saturation binding assay was performed on A431-CCK2R cells plated 2 days prior to the assay at a density of 1×10^6 cells per well in 6-well plates. […] Before recovering the cell-associated radioactivity from the wells by using 1 M NaOH (two times), cells were washed twice with ice-cold phosphate-buffered saline (PBS). The radioactivity was then counted using a gamma counter (2480 Wizard2 3”, PerkinElmer Life Sciences and Analytical Instruments, formerly Wallac Oy, Turku, Finland) and non-specific binding was subtracted. For normalization to the number of cells, cells from three different wells were trypsinized and counted by Beckman Coulter Vi-CELL AS cell viability analyser (Beckman Coulter, Fullerton, CA, USA). Three independent assays were performed in triplicate. Binding curves were analysed using GraphPad Prism version 10.1.2 for Windows (GraphPad Software, Boston, Massachusetts USA).

tumour = conditions: in vivo; cited from earlier work
A431-CCK2R cells = conditions: cited from earlier work
A431-CCK2R xenografts [5] = conditions: in vivo; cited from earlier work
[6] = BALB/c nude (athymic), in vivo, 20 pmol of peptide, Uptake, A431-CCK2R tumour
[7] = BALB/c nude (athymic), in vivo, 20 pmol of peptide, Uptake, blood
[8] = BALB/c nude (athymic), in vivo, 20 pmol of peptide, Uptake, heart
[9] = BALB/c nude (athymic), in vivo, 20 pmol of peptide, Uptake, kidney
[10] = BALB/c nude (athymic), in vivo, 20 pmol of peptide, Uptake, liver
[11] = BALB/c nude (athymic), in vivo, 20 pmol of peptide, Uptake, lung
[12] = BALB/c nude (athymic), in vivo, 20 pmol of peptide, Uptake, pancreas
[13] = BALB/c nude (athymic), in vivo, 20 pmol of peptide, Uptake, stomach
[14] = athymic BALB/c nude, in vivo, Uptake, femur
[15] = athymic BALB/c nude, in vivo, Uptake, heart
[16] = athymic BALB/c nude, in vivo, Uptake, intestine
[17] = athymic BALB/c nude, in vivo, Uptake, muscle
[18] = athymic BALB/c nude, in vivo, Uptake, spleen

## CCCC[C@@H](C(=O)N[C@@H](CC(=O)O)C(=O)N[C@@H](Cc1cccc2ccccc12)C(N)=O)N(C)C(=O)[C@H](Cc1c[nH]c2ccccc12)NC(=O)CNC(=O)[C@H](Cc1ccc(O)cc1)NC(=O)[C@H](C)NC(=O)[C@@H](CCC(=O)O)NC(=O)CN1CCN(CC(=O)O)CCN(CC(=O)O)CCN(CC(=O)O)CC1 [DOTA-MGS5, DOTA-DGlu-Ala-Tyr-Gly-Trp-(N-Me)Nle-Asp-1-Nal-NH2]
[1]
  NOAEL (no observed adverse effect level): 0.4 mg/kg body weight
[2]
  1/100 of NOAEL: 4 µg/kg

## CCCC[C@@H](C(=O)N[C@@H](CC(=O)O)C(=O)N[C@@H](Cc1cccc2ccccc12)C(N)=O)N(C)C(=O)[C@H](Cc1c[nH]c2ccccc12)NC(=O)CNC(=O)[C@H](Cc1ccc(O)cc1)NC(=O)[C@H](C)NC(=O)[C@@H](CCC(=O)O)NC(=O)CN1CCN(CC(=O)O)CCN(CC(=O)O)CCN(CC(=O)O)CC1 [[^177Lu]Lu-DOTA-MGS5, metal not drawn]
A431-CCK2R xenografts [3]; female, BALB/c nude (athymic), iv, 20 pmol of peptide, 24 h
  Uptake, blood: 0.013±0.002 %IA/g
A431-CCK2R xenografts [3]; female, athymic BALB/c nude
  half-life of blood clearance: 2.8 h
A431-CCK2R xenografts [3]
  biological half-life of clearance from the tumour: 18.2 h
[4]; BALB/c nude (athymic), A431-CCK2R tumour xenograft, 20 pmol of peptide, A431-CCK2R xenograft, 1h p.i., i.v., n = 5, read-out: Uptake, A431-CCK2R tumour
  tissue uptake at 1 h: 68.1 ± 10 %ID/g
[4]; [6]
  tissue uptake at 24 h: 28.9 ± 7.2 %ID/g
  tissue uptake at 72 h: 12.6 ± 0.3 %ID/g
  tissue uptake at 168 h: 2 ± 0.5 %ID/g
[4]; [7]
  tissue uptake at 1 h: 1.9 ± 0.4 %ID/g
  tissue uptake at 24 h: 0.01 ± 0.002 %ID/g
  tissue uptake at 72 h: 0.004 ± 0.002 %ID/g
  tissue uptake at 168 h: 0.01 ± 0.01 %ID/g
[4]; [8]
  tissue uptake at 1 h: 0.8 ± 0.2 %ID/g
  tissue uptake at 24 h: 0.05 ± 0.01 %ID/g
[4]; [9]
  tissue uptake at 1 h: 3.7 ± 0.4 %ID/g
  tissue uptake at 24 h: 2 ± 0.2 %ID/g
  tissue uptake at 72 h: 1 ± 0.1 %ID/g
  tissue uptake at 168 h: 0.4 ± 0.1 %ID/g
[4]; [10]
  tissue uptake at 1 h: 1.3 ± 0.2 %ID/g
  tissue uptake at 24 h: 0.5 ± 0.1 %ID/g
  tissue uptake at 72 h: 0.2 ± 0.1 %ID/g
  tissue uptake at 168 h: 0.08 ± 0.01 %ID/g
[4]; [11]
  tissue uptake at 1 h: 4.6 ± 1.9 %ID/g
  tissue uptake at 24 h: 0.2 ± 0.1 %ID/g
  tissue uptake at 72 h: 0.1 ± 0.04 %ID/g
  tissue uptake at 168 h: 0.04 ± 0.01 %ID/g
[4]; [12]
  tissue uptake at 1 h: 1.7 ± 0.5 %ID/g
  tissue uptake at 24 h: 0.9 ± 0.2 %ID/g
  tissue uptake at 72 h: 0.7 ± 0.2 %ID/g
  tissue uptake at 168 h: 0.6 ± 0.1 %ID/g
[4]; [13]
  tissue uptake at 1 h: 8.1 ± 0.9 %ID/g
  tissue uptake at 24 h: 4.9 ± 0.4 %ID/g
  tissue uptake at 168 h: 1.3 ± 0.1 %ID/g
[4]; [14]
  tissue uptake at 1 h: 0.3 ± 0.1 %ID/g
  tissue uptake at 24 h: 0.052 ± 0.008 %ID/g
  tissue uptake at 72 h: 0.032 ± 0.007 %ID/g
  tissue uptake at 168 h: 0.06 ± 0.02 %ID/g
[4]; [15]
  tissue uptake at 72 h: 0.026 ± 0.005 %ID/g
  tissue uptake at 168 h: 0.018 ± 0.004 %ID/g
[4]; [16]
  tissue uptake at 1 h: 1.1 ± 0.3 %ID/g
  tissue uptake at 24 h: 0.17 ± 0.02 %ID/g
  tissue uptake at 72 h: 0.1 ± 0.01 %ID/g
  tissue uptake at 168 h: 0.04 ± 0.01 %ID/g
[4]; [17]
  tissue uptake at 1 h: 0.3 ± 0.2 %ID/g
  tissue uptake at 24 h: 0.04 ± 0.01 %ID/g
  tissue uptake at 72 h: 0.01 ± 0.003 %ID/g
  tissue uptake at 168 h: 0.018 ± 0.005 %ID/g
[4]; [18]
  tissue uptake at 1 h: 0.6 ± 0.1 %ID/g
  tissue uptake at 168 h: 0.09 ± 0.01 %ID/g
In vivo
  tissue uptake at 4 h: 22.9 ± 4.7 %ID/g
In vivo; female, iv, 20 pmol peptide
  tissue uptake at 4 h: 31.9 ± 12.8 %ID/g
In vivo; female, athymic BALB/c nude, tumour uptake
  tissue uptake: ~23 %ID/g
Human CCK2R
  Kd: 5.25 ± 1.61 nM

## [^111In]In-DOTA-MG11: 111In-labelled DOTA-MG11 (DOTA-DGlu-Ala-Tyr-Gly-Trp-Met-Asp-Phe-NH2) ({DOTA}-[dE]AYGWMDF-NH2; also: 111In complexed by DOTA)
tumour
  tumour uptake: 2–3 % ID/g

## [^177Lu]Lu-DOTA-PP-F11N: 177Lu-labelled DOTA-(DGlu)6-Ala-Tyr-Gly-Trp-Nle-Asp-Phe-NH2 (AYGW; 177Lu-DOTA-(DGlu)6, Nle-Asp-Phe-NH2; printed: Ala-Tyr-Gly-Trp-)
A431-CCK2R cells; A431-CCK2R cells, nM printed only with the first value of the sentence
  Bmax: 0.54 ± 0.10 nM
A431-CCK2R cells; same cell line (A431-CCK2R), nM printed only with the PP-F11N value
  Kd: 50 ± 7.3 nM
A431-CCK2R xenografts [5]
  tumour uptake: ~ 7 %ID/g
